Data: patent US20230190718A1, “METHODS FOR THE TREATMENT OF PANCREATITIS AND PREVENTION OF PANCREATIC CANCER” (BOARD OF REGENTS, THE UNIVERSITY OF TEXAS SYSTEM, priority 2020, published 2023)
Entries after “also recorded” stand apart in the source; their conditions may differ.

What was measured:
[1] = tested on: repeated caerulein-induced pancreatitis in iKRAS animals; experiment: Pharmacological modulation of ADM in iKRAS mice rechallenged with caerulein (repeated pancreatitis); format: in vivo
Procedure: To explore the hypothesis that ADM is a physiologic, fast and reversible adaptation mediated by epithelial memory that limits the detrimental effects of repeated pancreatitis, the effects of pharmacological modulation of ADM was evaluated in iKRAS animals subjected to repeated inflammation.
(§1) Induction of acute pancreatitis. […] Control mice received injections of pyrogen-free PBS. Mice were examined daily for health conditions and sacrificed at the indicated time points by CO2 asphyxiation and cervical dislocation.
For ADM quantification two hematoxylin/eosin-stained 10×-magnification fields of whole-mount pancreata from two mice each experimental group were analyzed with ImageJ. ADM areas, expressed in pixels, were normalized to control (rechallenged) mice considered as reference.
Images, then, were analyzed with ImageJ and CC3 specific signal, expressed as area (pixels), was normalized to total pancreatic parenchyma using DAPI. From six to nine 4×-magnification fields of whole-mount pancreata from three mice each experimental group were analyzed.

[2] = tested on: Caerulein-induced pancreatitis; experiment: Pretreatment with ADM inducers in caerulein-induced pancreatitis: histology (ADM) and CD45 infiltration; format: in vivo, mice; conditions: EGF 1.2 mg/kg i.p., two injections a day for four days, before caerulein; 24 hrs after caerulein; compared with sulindac
Description: Epigenetic modifiers: Recently, the emerging role of epigenetic regulation has led to the development of a wide spectrum of small molecules targeting selectively bromodomain and extra-terminal (BET) protein family which are currently under evaluation in preclinical model of hematological malignancies and solid tumors (Asangani et al., 2014; Delmore et al., 2011; Filippakopoulos et al., 2010). Leveraging the persistent chromatin modifications induced by an acute inflammatory event, the possibility of limiting the detrimental effects of repeated pancreatitis was tested through the administration of INCB054329, a BRD4 inhibitor currently in phase I-II clinical studies in patients with advanced malignancies (Falchook et al., 2019).
as §1
DAPI nuclear counterstaining was also performed.

[3] = EGF at pharmacological doses before induction of pancreatitis
[4] = iKRAS mice pretreated before and during CAE rechallenge, p<0.01

B1: EGF (protein, UniProt P01133 23-1207, looked up)
Pro-epidermal growth factor: PQHWSCPEGTLAGNGNSTCVGPAPFLIFSHGNSIFRIDTEGTNYEQLVVDAGVSVIMDFHYNEKRIYWVDLERQLLQRVFLNGSRQERVCNIEKNVSGMAINWINEEVIWSNQQEGIITVTDMKGNNSHILLSALKYPANVAVDPVERFIFWSSEVAGSLYRADLDGVGVKALLETSEKITAVSLDVLDKRLFWIQYNREGSNSLICSCDYDGGSVHISKHPTQHNLFAMSLFGDRIFYSTWKMKTIWIANKHTGKDMVRINLHSSFVPLGELKVVHPLAQPKAEDDTWEPEQKLCKLRKGNCSSTVCGQDLQSHLCMCAEGYALSRDRKYCEDVNECAFWNHGCTLGCKNTPGSYYCTCPVGFVLLPDGKRCHQLVSCPRNVSECSHDCVLTSEGPLCFCPEGSVLERDGKTCSGCSSPDNGGCSQLCVPLSPVSWECDCFPGYDLQLDEKSCAASGPQPFLLFANSQDIRHMHFDGTDYGTLLSQQMGMVYALDHDPVENKIYFAHTALKWIERANMDGSQRERLIEEGVDVPEGLAVDWIGRRFYWTDRGKSLIGRSDLNGKRSKIITKENISQPRGIAVHPMAKRLFWTDTGINPRIESSSLQGLGRLVIASSDLIWPSGITIDFLTDKLYWCDAKQSVIEMANLDGSKRRRLTQNDVGHPFAVAVFEDYVWFSDWAMPSVMRVNKRTGKDRVRLQGSMLKPSSLVVVHPLAKPGADPCLYQNGGCEHICKKRLGTAWCSCREGFMKASDGKTCLALDGHQLLAGGEVDLKNQVTPLDILSKTRVSEDNITESQHMLVAEIMVSDQDDCAPVGCSMYARCISEGEDATCQCLKGFAGDGKLCSDIDECEMGVPVCPPASSKCINTEGGYVCRCSEGYQGDGIHCLDIDECQLGEHSCGENASCTNTEGGYTCMCAGRLSEPGLICPDSTPPPHLREDDHHYSVRNSDSECPLSHDGYCLHDGVCMYIEALDKYACNCVVGYIGERCQYRDLKWWELRHAGHGQQQKVIVVAVCVVVLVMLLLLSLWGAHYYRTQKLLSKNPKNPYEESSRDVRSRRPADTEDGMSSCPQPWFVVIKEHQDLKNGGQPVAGEDGQAADGSMQPTSWRQEPQLCGMGTEQGCWIPVSSDKGSCPQVMERSFHMPSYGTQTLEGGVEKPHSLLSANPLWQQRALDPPHQMELTQ
modifications: Pro-epidermal growth factor
notes: growth factor used as MAPK agonist / ADM inducer
Question: For B1, which ADM formation [1, 3] is on record?
Answer: largely promoted ADM formation

Question: And the “tissue damage, evaluated as number of cells positive for cleaved caspase 3” value [1, 3]?
Answer: strong reduction of tissue damage

Question: And the “decreased tissue damage as indicated by CC3 immunostaining” value [1, 4]?
Answer: ~8 fold

Question: What about the “increase of ADM formation (relative area) with respect to control mice rechallenged with CAE alone” value [1, 4] of the same molecule?
Answer: ~3 fold

Question: What about the “infiltration of CD45 cells (marker of inflammation)” value [2] of the same molecule?
Answer: almost completely suppressed; also recorded: significant decrease of CD45 infiltration
